# In PMC2688836 (2010):
# Numbering of substitutions follows the chain as printed. In names and notes the source's numbering stands.
# B1: NHERF1 PDZ2-CT E353A 150-358 (protein)
# chain: LRPRLCTMKKGPSGYGFNLHSDKSKPGQFIRSVDPDSPAEASGLRAQDRIVEVNGVCMEGKQHGDVVSAIRAGGDETKLLVVDRETDEFFKKCRVIPSQEHLNGPLPVPFTNGEIQKENSREALAEAALESPRPALVRSASSDTSEELNSQDSPPKQDSTAPSSTSSSDPILDFNISLAMAKERAHQKRSSKRAPQMDWSKKNALFSNL
# B2: NHERF1 PDZ2-CT E353P 150-358 (protein)
# chain: B1 chain with A204P
# B3: NHERF1 PDZ2-CT L358D 150-358 (protein)
# chain: B1 chain with A204E, L209D
# B4: NHERF1 PDZ2-CT 150-358 (protein)
# chain: B1 chain with A204E
# Biological target: C-CFTR 1411-1480 (Homo sapiens, UniProt P13569)
# Sequence (P13569 1411-1480): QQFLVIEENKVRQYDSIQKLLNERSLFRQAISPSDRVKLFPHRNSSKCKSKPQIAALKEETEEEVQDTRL
# Assay: SPR
row,Binder,Kd
1,B1,2500 nM
2,B2,480 nM
3,B3,1600 nM
4,B4,2000 nM
